Experimental findings from publication PMC5299547 (Analytical Chemistry, 2017) are described below.

The target in this experiment is T1, tryptophan synthase, beta subunit (Salmonella typhimurium, UniProt P0A2K1 2-397).
T1 sequence: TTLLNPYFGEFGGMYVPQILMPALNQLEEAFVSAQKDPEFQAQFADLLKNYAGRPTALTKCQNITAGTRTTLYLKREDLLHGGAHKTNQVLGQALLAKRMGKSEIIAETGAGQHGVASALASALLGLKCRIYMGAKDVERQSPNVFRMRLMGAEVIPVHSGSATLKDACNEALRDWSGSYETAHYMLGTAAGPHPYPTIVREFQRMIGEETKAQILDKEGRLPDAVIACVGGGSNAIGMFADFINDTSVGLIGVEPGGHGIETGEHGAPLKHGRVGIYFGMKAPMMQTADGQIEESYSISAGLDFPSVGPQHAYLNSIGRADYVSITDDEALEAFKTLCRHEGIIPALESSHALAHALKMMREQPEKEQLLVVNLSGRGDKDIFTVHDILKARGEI
In words: native MS; 10 μM purified complex buffer-exchanged in 200 mM ammonium acetate, electrosprayed (Synapt G2Si); subcomplexes generated in solution with 10–40% methanol, DMSO or acetonitrile. Particulars: both partners purified.

B1: tryptophan synthase, alpha subunit (natural protein, Salmonella typhimurium)
chain: MERYENLFAQLNDRREGAFVPFVTLGDPGIEQSLKIIDTLIDAGADALELGVPFSDPLADGPTIQNANLRAFAAGVTPAQCFEMLALIREKHPTIPIGLLMYANLVFNNGIDAFYARCEQVGVDSVLVADVPVEESAPFRQAALRHNIAPIFICPPNADDDLLRQVASYGRGYTYLLSRSGVTGAENRGALPLHHLIEKLKEYHAAPALQGFGISSPEQVSAAVRAGAAGAISGSAIVKIIEKNLASPKQMLAELRSFVSAMKAASRA
On to B1, for which the binding result is “binds”.
